{
  "source": "patent US20140248360A1",
  "about": "“NANOPARTICLE TUMOUR VACCINES” (MIDATECH LIMITED, priority 2011, published 2014)",
  "key": {"[1]": {"assay": "Aggregation and solubility of nanoparticle preparations", "assay_type": "physicochemical", "details": "for NP formed in repeat production: 75% methanol not 95% in the synthesis stage", "protocol": "Samples were bench spun the supernatant removed and the dark pellet dissolved in 2 ml water, and then transferred to a 10 kDa vivaspin for a total of 4 times 2 ml water washes each of 8 min at 5 Krpm. Nanoparticles (NPs) were removed from the vivaspins and made up to 500 μl with water, they were then subjected to 15 Krpm bench spin to remove any large aggregates.\nNP's 2-5 were produced by a variation using 75% methanol not 95% in the synthesis stage."}, "[2]": {"target": "SIINFEKL:K^b complex (SIINFEKL complexed to H-2K^b) on LK^b cells (murine) (UniProt P01901)", "sequence (P01901 22-369 limits assumed, one chain of several)": "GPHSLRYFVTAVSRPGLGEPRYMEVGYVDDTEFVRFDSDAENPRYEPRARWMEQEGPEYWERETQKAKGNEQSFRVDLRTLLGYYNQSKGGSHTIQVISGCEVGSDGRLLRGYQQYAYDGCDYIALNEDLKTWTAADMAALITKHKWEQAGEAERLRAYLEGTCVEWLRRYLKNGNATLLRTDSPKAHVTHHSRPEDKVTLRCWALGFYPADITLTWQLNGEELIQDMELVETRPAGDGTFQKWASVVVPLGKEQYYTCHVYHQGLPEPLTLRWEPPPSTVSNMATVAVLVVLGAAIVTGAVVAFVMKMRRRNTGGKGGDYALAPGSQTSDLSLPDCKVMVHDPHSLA", "assay": "cell-based or functional assay"}},
  "data": [
    {"substance": "NP 2: gold nanoparticle, GlcC2 corona, peptide ligand SIINFEKL-N-(CH2)2-SH", "values": [
      {"measurement": "NP formed in repeat production", "setting": "[1]", "value": "‘normal’ NP"}
    ]},
    {"substance": "NP 3: gold nanoparticle, GlcC2 corona, peptide ligand FLSIINFEKL-N-(CH2)2-SH", "values": [
      {"measurement": "solubility of NP aggregates in NaOH", "setting": "[1]; 300 mM NaOH", "value": "total NP solubilisation"},
      {"measurement": "NP formed in repeat production", "setting": "[1]", "value": "formed aggregates"},
      {"measurement": "aggregation of NP after synthesis", "setting": "[1]; first production, after 15 Krpm bench spin", "value": "large near complete aggregation"},
      {"measurement": "solubility of NP aggregates", "setting": "[1]; water, 10% acetic acid, PBS, DMSO or DMF", "value": "not soluble"}
    ]},
    {"substance": "T cell receptor of the SIINFEKL:Kb-specific T hybridoma B3Z (TCR)", "values": [
      {"measurement": "β-galactosidase measured using a luminescent substrate (B3Z activation); limit of detection as SIINFEKL pulse concentration", "setting": "[2]", "value": 5, "unit": "ng/mL"}
    ]}
  ]
}
